Test results reported in patent publication US20250263440A1, “CD38-BINDING AGENTS AND USES THEREOF” (PeptiDream Inc., priority 2019, published 2025).
Where two headings read alike, the source gives them in different places. Positions of bridges follow the written chain, without caps; N, C: chain ends. Non-standard residues stand in square brackets, D forms with d. Residues, ends and D or L forms follow the SMILES beside them. No end group written: not given here. Bip = N[C@@H](Cc1ccc(-c2ccccc2)cc1)C(=O)O; NMeF = CN[C@@H](Cc1ccccc1)C(=O)O; Ahp(2) = CCCCC[C@H](N)C(=O)O

Experiments:
[1] = target: T1, CD38 (Homo sapiens, UniProt P28907); experiment: ELISA binding assay of I-1 / I-2 sequence variants to CD38
T1 construct: purchased R&D Systems
Experimental: Recombinant human CD38 proteins were purchased from R&D Systems. In some embodiments, the following codons were used. ClAc-Ala: N-Chloroacetyl-L-alanine; MePhe: N-Methyl-L-phenylalanine; MeGly: N-Methyl-glycine; Ahp: (S)-2-aminoheptanoic acid; Bph: (S)-3-([1,1′-biphenyl]-4-yl)-2-aminopropanoic acid.
A number of compounds having similar structures to compound I-1 (difference being amino acid sequence) were prepared and assessed in an ELISA assay. The first sequence is of I-1, and SEQ ID.NO.1.
A number of compounds having similar structures to compound I-2 (difference being amino acid sequence) were prepared and assessed in an ELISA assay. The first sequence is of I-2, and SEQ ID NO. 2.

[2] = target: T1, CD38; experiment: SPR assay (BIACORE T200, Sensor Chip CM3, single-cycle kinetics) of binding to immobilized CD38; conditions: SPR Biacore T200, CM3 chip, HBS-EP with 1% DMSO; for kon: read-out: Ka (association rate constant); for koff: read-out: Kd (dissociation rate constant)
Experimental: (§1) One of many useful technology for assessing CD38 binding is surface plasmon resonance (SPR). For example, the binding constant of I-1 (SEQ ID NO. 1; same as below) and I-2 (SEQ ID NO. 2; same as below) to CD38 was analyzed by a SPR assay using BIACORE T200 (cytiva: Former GE Healthcare). After the equilibration of Series S Sensor Chip CM3 (produced by cytiva: Former GE Healthcare) with Running Buffer (HBS-EP with 1% (v/v) DMSO), an EDC/NHS mixture was injected at a flow rate of […] for 4 minutes to thereby activate the functional groups on sensor chip. CD38 in 10 mM Acetate (pH5.5) was injected immobilized to at a flow rate of 5 L/min. For 4 minutes to immobilize the CD38 on the substrate surfaces of the sensor chip. Then Ethanolamine was injected at a flow rate of […] for 4 minutes. 1.0 M Ethanolamine (aq.) was injected at a flow rate of […] for 420 seconds for capping. 10 mM Peptides in DMSO were diluted to obtain 10 uM with Running Buffer, and prepared 100 nM, 50 nM, 25 nM, 10 nM, 5 nM of each peptide solutions (Peptide Samples).
(§2) Using these Peptide Samples, kinetics of peptides against CD38 was measured. The method adopted for sample measurement was a single-cycle kinetics method. The analysis was conducted using the evaluation software provided with Biacore T200. A DMSO correction curve obtained by solvent correction measurements was applied for the analysis. Kinetics fitting was done on the difference data obtained by subtracting the baseline data from sample measurement data.
(§3) KD values were calculated based on the association rate constant (ka) and dissociation rate constant (kd).
The binding constant of pegylated compounds was analyzed by a surface plasmon resonance as in the Example −2.

[3] = target: T2, Recombinant human CD38 protein (R&D Systems) (human, UniProt P28907 43-300); experiment: ELISA
[4] = target: T2, Recombinant human CD38 protein (R&D …); experiment: SPR (Biacore T200), CD38 immobilised on CM3 chip, single-cycle kinetics
Experimental: as §1, with “For example, the binding constant of I-1 (SEQ ID NO. 1; same as below) and I-2 (SEQ ID NO. 2; same as below) to CD38 was analyzed by a SPR assay using BIACORE T200 (cytiva: Former GE Healthcare).” left out
as §2, with “Kinetics fitting was done on the difference data obtained by subtracting the baseline data from sample measurement data.” left out
as §3

[5] = target: T2, Recombinant human CD38 protein (R&D …); experiment: SPR (Biacore T200), single-cycle kinetics, CD38 immobilised on CM3 chip, 1:1 Binding model, 25 °C; figure legend names I-2 and the panel matches Table 4 (3.6*10^5, rounded there)
Experimental: as §1, with “For example, the binding constant of I-1 (SEQ ID NO. 1; same as below) and I-2 (SEQ ID NO. 2; same as below) to CD38 was analyzed by a SPR assay using BIACORE T200 (cytiva: Former GE Healthcare).” left out
as §2, with “Kinetics fitting was done on the difference data obtained by subtracting the baseline data from sample measurement data.” left out
as §3

[6] = target: T2, Recombinant human CD38 protein (R&D …); experiment: SPR (Biacore T200), single-cycle kinetics, CD38 immobilised on CM3 chip, 1:1 Binding model, 25 °C; figure legend names I-2 and the panel matches Table 4 (1.3*10^-2, rounded there)
Experimental: as §1, with “For example, the binding constant of I-1 (SEQ ID NO. 1; same as below) and I-2 (SEQ ID NO. 2; same as below) to CD38 was analyzed by a SPR assay using BIACORE T200 (cytiva: Former GE Healthcare).” left out
as §2, with “Kinetics fitting was done on the difference data obtained by subtracting the baseline data from sample measurement data.” left out
as §3

[7] = target: T2, Recombinant human CD38 protein (R&D …); experiment: SPR (Biacore T200), single-cycle kinetics, CD38 immobilised on CM3 chip, 1:1 Binding model, 25 °C; figure legend names I-2 and the panel matches Table 4 (3.5*10^-8, rounded there)
Experimental: as §1, with “For example, the binding constant of I-1 (SEQ ID NO. 1; same as below) and I-2 (SEQ ID NO. 2; same as below) to CD38 was analyzed by a SPR assay using BIACORE T200 (cytiva: Former GE Healthcare).” left out
as §2, with “Kinetics fitting was done on the difference data obtained by subtracting the baseline data from sample measurement data.” left out
as §3

[8] = target: T2, Recombinant human CD38 protein (R&D …); experiment: ELISA; remark: listed apart in the source
[9] = target: T2, Recombinant human CD38 protein (R&D …); experiment: SPR (Biacore T200), single-cycle kinetics, CD38 immobilised on CM3 chip, 1:1 Binding model, 25 °C; figure legend names I-1; Table 4 prints 1.8*10^-3 for this constant
Experimental: as §1, with “For example, the binding constant of I-1 (SEQ ID NO. 1; same as below) and I-2 (SEQ ID NO. 2; same as below) to CD38 was analyzed by a SPR assay using BIACORE T200 (cytiva: Former GE Healthcare).” left out
as §2, with “Kinetics fitting was done on the difference data obtained by subtracting the baseline data from sample measurement data.” left out
as §3

[10] = target: T2, Recombinant human CD38 protein (R&D …); experiment: SPR (Biacore T200), single-cycle kinetics, CD38 immobilised on CM3 chip, 1:1 Binding model, 25 °C; figure legend names I-1 and the panel matches Table 4 (7.7*10^5, rounded there)
Experimental: as §1, with “For example, the binding constant of I-1 (SEQ ID NO. 1; same as below) and I-2 (SEQ ID NO. 2; same as below) to CD38 was analyzed by a SPR assay using BIACORE T200 (cytiva: Former GE Healthcare).” left out
as §2, with “Kinetics fitting was done on the difference data obtained by subtracting the baseline data from sample measurement data.” left out
as §3

[11] = target: T2, Recombinant human CD38 protein (R&D …); experiment: SPR (Biacore T200), single-cycle kinetics, CD38 immobilised on CM3 chip, 1:1 Binding model, 25 °C; figure legend names I-1 and the panel matches Table 4 (2.3*10^-9, rounded there)
Experimental: as §1, with “For example, the binding constant of I-1 (SEQ ID NO. 1; same as below) and I-2 (SEQ ID NO. 2; same as below) to CD38 was analyzed by a SPR assay using BIACORE T200 (cytiva: Former GE Healthcare).” left out
as §2, with “Kinetics fitting was done on the difference data obtained by subtracting the baseline data from sample measurement data.” left out
as §3

`CCCCC[C@@H]1NC(=O)[C@H](CCCNC(=N)N)NC(=O)[C@H](C)NC(=O)CSC[C@@H](C(N)=O)NC(=O)[C@H](CC(=O)O)NC(=O)[C@H](CCCCC)NC(=O)[C@H](Cc2ccc(-c3ccccc3)cc2)NC(=O)[C@H](CC(C)C)NC(=O)[C@H](C(C)C)NC(=O)CNC(=O)[C@H](CC(=O)O)NC(=O)[C@H](Cc2c[nH]cn2)NC(=O)[C@H](Cc2ccc(O)cc2)NC1=O` [I-1] was tested, and the “Binding Assay” value ([1]; compounds similar to I-1, larger values indicate stronger binding) was 1.97, the kon [2] was 770000 M⁻¹ s⁻¹ and the koff [2] was 0.0018 s⁻¹.

In the case of `CC(C)C[C@@H]1NC(=O)[C@H](C)NC(=O)CSC[C@@H](C(N)=O)NC(=O)[C@H](C(C)C)NC(=O)[C@H](Cc2c[nH]c3ccccc23)NC(=O)[C@H](C(C)C)NC(=O)[C@H](Cc2ccc(-c3ccccc3)cc2)NC(=O)[C@@H]2CCCN2C(=O)[C@H](CC(C)C)NC(=O)[C@H](C(C)C)NC(=O)[C@H](Cc2ccccc2)N(C)C(=O)[C@H](Cc2c[nH]cn2)NC1=O` [I-2] ({CH2CO}-ALH[NMeF]VLP[Bip]VWVC-NH2; thioether N-12), the “Binding Assay” value ([1]; compounds similar to I-2, larger values indicate stronger binding) is reported as 1.69, the kon [2] is reported as 360000 M⁻¹ s⁻¹ and the koff [2] is reported as 0.013 s⁻¹.

B1: Compound I-2 (SEQ ID NO. 2) (peptide)
peptide: ALHXVLPXVWVC
modifications: not fully specified; MePhe (N-methyl-L-phenylalanine) at 4; Bph at 8; cyclic peptide (N-terminal ClAc-Ala cyclised with the C-terminal Cys), structure given as a drawing
notes: Printed as Ala Leu His MePhe Val Leu Pro Bph Val Trp Val Cys
With B1 the “Binding Assay (larger values indicate stronger binding)” value [3] was 1.69, the Kd [4] was 35 nM and the kon [5] was 358000 M⁻¹ s⁻¹. For the same molecule, the koff [6] was 0.0127 s⁻¹ and the Kd [7] was 35.4 nM.

B2: Compound I-1 (SEQ ID NO. 1) (peptide)
peptide: {CH2CO}-AR[Ahp(2)]YHDGVL[Bip][Ahp(2)]DC
modifications: thioether N-13
notes: Ala Arg Ahp Tyr His Asp Gly Val Leu Bph Ahp Asp Cys
B2 was tested, and the “Binding Assay (larger values indicate stronger binding)” value [8] was 1.97, the Kd [4] was 2.3 nM and the koff [9] was 0.00175 s⁻¹. The kon [10] was 769000 M⁻¹ s⁻¹ and the Kd [11] was 2.27 nM.
